Test results reported in patent publication US20220041725A1 (MacroGenics, published 2022).
Blank lines part the entries; values can stand above or below the molecule they belong to.

Molecular target: T1, HER-2 (UniProt P04626 23-652, limits assumed)
T1 construct: also called HER2/neu; erbB-2
Assay: SPR (BIAcore 1000), HER-2 amine-coupled on chip, antibody injected at 6.25-200 nM

koff: 6.3e-06 s⁻¹
kon: 110000 M⁻¹ s⁻¹
Molecule: ch4D5 (antibody)

koff: ~3.2e-07 s⁻¹
kon: 170000 M⁻¹ s⁻¹
B1: ch4D5-wild-type Fc (antibody, human IgG1, kappa, V domains shown)
VH: QVQLQQSGPELVKPGASLKLSCTASGFNIKDTYIHWVKQRPEQGLEWIGRIYPTNGYTRYDPKFQDKATITADTSSNTAYLQVSRLTSEDTAVYYCSRWGGDGFYAMDYWGQGASVTVSS
VL: DIVMTQSHKFMSTSVGDRVSITCKASQDVNTAVAWYQQKPGHSPKLLIYSASFRYTGVPDRFTGSRSGTDFTFTISSVQAEDLAVYYCQQHYTTPPTFGGGTKVEIKR
notes: Chimeric IgG with wild-type human IgG1 Fc; also called ch4D5-FcWT (wild-type Fc); Chimeric 4D5 Antibody having a wild-type Fc
